Results published in patent EP2386565A2 (Cambridge Enterprise Ltd., dated 2000).
No end group written: not given here. *: point of attachment. Biotin = O=C1N[C@H]2[C@H](CS[C@H]2CCCCC(=O)*)N1

Assays:
[1] = biological target: T1, Duffy Antigen Receptor for Chemokines (DARC) (human, UniProt Q16570 1-336); assay: Duffy binding; kind of constant not named
T1 construct: whole, on cells
T1 sequence (looked up): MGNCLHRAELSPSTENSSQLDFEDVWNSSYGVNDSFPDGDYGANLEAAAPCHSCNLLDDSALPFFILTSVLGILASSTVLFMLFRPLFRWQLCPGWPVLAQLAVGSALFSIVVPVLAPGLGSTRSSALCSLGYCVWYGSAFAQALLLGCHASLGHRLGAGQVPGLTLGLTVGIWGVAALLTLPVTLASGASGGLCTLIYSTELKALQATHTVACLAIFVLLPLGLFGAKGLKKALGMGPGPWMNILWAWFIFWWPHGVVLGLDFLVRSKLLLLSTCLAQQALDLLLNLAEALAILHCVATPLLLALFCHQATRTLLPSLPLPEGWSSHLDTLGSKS

[2] = biological target: T1, Duffy Antigen Receptor for Chemokines …; assay: competition binding analysis using red blood cells; given as affinity
[3] = biological target: T1, Duffy Antigen Receptor for Chemokines …; assay: ka for binding to red blood cells divided by ka for binding to THP-1 cells
[4] = biological target: T1, Duffy Antigen Receptor for Chemokines …; assay: DARC binding on red blood cells; printed as Duffy affinity
[5] = biological target: T1, Duffy Antigen Receptor for Chemokines …; assay: estimated ka for binding to red blood cells divided by average inhibitory ED50 in THP-1 migration
CCR1 = biological target: T2, CCR1 (human, UniProt P32246 1-355); assay: biotin-labeled peptide on receptor-expressing cell lines, 125I-streptavidin
T2 construct: whole, on cells
T2 sequence (looked up): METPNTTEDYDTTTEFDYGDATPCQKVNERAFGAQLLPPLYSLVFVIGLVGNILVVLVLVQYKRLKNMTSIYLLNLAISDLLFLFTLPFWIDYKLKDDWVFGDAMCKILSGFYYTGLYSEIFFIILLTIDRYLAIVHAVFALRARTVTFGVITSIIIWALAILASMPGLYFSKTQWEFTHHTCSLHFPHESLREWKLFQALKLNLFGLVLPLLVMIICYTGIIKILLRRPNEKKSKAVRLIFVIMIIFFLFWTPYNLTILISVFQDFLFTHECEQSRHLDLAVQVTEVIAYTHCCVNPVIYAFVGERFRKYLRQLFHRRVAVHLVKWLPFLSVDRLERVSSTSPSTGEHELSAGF

CCR2 = biological target: T3, CCR2 (human, UniProt P41597 1-374); assay: as above
T3 construct: whole, on cells

CCR3 = biological target: T4, CCR3 (human, UniProt P51677 1-355); assay: as above
T4 construct: whole, on cells
T4 sequence (looked up): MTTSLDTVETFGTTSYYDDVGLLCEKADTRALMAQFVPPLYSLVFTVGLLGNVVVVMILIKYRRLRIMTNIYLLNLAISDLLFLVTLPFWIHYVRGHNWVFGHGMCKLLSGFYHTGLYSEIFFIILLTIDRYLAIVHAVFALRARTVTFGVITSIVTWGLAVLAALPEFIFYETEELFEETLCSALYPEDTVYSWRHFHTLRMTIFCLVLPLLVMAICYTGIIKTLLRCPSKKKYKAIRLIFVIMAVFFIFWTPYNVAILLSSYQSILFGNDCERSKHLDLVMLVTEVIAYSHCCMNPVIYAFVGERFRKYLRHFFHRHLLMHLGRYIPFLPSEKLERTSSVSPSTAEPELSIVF

CCR4 = biological target: T5, CCR4 (human, UniProt P51679 1-360); assay: as above
T5 construct: whole, on cells
T5 sequence (looked up): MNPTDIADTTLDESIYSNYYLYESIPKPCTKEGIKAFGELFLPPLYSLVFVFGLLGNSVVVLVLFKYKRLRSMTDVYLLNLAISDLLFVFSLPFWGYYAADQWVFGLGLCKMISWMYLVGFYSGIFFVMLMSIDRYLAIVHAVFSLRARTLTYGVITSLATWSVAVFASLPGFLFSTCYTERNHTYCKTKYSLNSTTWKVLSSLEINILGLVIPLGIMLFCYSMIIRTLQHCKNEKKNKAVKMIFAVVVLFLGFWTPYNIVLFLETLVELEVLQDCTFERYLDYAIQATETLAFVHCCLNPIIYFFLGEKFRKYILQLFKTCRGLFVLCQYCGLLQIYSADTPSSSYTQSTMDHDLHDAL

CCR5 = biological target: T6, CCR5 (human, UniProt P51681 1-352); assay: as above
T6 construct: whole, on cells

CXCR4 = biological target: T7, CXCR4 (human, UniProt P61073 1-352); assay: as above
T7 construct: whole, on cells

CXCR1 = biological target: T8, CXCR1 (human, UniProt P25024 1-350); assay: as above
T8 construct: whole, on cells
T8 sequence (looked up): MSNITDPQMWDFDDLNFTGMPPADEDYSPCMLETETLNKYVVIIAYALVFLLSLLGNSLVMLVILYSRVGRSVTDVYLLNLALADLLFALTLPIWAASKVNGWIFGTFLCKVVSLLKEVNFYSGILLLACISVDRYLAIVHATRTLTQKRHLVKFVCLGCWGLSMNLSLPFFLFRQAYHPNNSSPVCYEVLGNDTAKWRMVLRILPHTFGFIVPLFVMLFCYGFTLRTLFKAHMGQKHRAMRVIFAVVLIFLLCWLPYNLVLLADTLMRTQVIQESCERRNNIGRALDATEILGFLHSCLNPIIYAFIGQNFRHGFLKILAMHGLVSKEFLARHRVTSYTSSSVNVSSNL

CXCR2 = biological target: T9, CXCR2 (human, UniProt P25025 1-360); assay: as above
T9 construct: whole, on cells
T9 sequence (looked up): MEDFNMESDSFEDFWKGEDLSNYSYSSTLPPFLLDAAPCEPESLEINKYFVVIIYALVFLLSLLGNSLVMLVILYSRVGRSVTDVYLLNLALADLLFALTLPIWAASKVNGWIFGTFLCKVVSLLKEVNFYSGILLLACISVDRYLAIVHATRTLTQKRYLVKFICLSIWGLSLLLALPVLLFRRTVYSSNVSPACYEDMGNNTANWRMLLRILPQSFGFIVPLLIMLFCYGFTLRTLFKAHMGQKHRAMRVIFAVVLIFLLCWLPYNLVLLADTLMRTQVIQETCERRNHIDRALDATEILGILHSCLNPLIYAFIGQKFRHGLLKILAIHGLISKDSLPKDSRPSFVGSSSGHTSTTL

[6] = biological target: T1, Duffy Antigen Receptor for Chemokines …; assay: Table 18, DARC binding; ns = not significantly different from control

T6 sequence (P51681 whole entry): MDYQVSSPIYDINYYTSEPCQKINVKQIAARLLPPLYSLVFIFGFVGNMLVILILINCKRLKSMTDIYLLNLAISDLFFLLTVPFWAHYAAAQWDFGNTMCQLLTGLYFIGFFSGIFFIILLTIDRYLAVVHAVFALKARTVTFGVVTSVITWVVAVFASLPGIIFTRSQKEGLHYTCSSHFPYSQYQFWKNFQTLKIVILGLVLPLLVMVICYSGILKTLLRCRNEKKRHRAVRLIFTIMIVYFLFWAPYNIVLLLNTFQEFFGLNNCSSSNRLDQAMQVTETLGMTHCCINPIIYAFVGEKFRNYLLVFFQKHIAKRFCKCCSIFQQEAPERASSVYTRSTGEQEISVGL
T7 sequence (P61073 whole entry): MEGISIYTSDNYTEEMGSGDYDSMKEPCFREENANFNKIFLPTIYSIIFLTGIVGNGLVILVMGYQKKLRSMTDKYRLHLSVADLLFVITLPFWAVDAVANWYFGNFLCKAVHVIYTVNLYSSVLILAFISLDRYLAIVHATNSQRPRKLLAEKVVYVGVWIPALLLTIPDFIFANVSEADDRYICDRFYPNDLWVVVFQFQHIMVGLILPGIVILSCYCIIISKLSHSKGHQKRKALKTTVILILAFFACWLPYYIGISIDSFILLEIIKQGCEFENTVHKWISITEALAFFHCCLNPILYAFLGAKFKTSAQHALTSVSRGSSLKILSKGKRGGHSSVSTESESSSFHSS
T3 sequence (P41597 whole entry): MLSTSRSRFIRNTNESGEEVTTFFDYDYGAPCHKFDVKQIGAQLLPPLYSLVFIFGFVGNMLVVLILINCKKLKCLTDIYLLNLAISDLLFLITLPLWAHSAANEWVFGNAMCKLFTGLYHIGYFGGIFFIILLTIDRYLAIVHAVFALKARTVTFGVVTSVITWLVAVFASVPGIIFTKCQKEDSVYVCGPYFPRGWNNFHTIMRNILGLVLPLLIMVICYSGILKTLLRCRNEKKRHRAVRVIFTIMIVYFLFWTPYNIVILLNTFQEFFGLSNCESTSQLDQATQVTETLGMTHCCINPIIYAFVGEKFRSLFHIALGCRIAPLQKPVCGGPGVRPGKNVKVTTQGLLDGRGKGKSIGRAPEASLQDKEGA

B1: Peptide 2(1-15)[MCP-1] (peptide)
peptide: SYRRITSSKCPKEAV
notes: also called Pep2[MCP1]; Pep2(1-15)[MCP1]
B1 gave a Kd [1] of 100 µM, a Kd [2] of less than 0.5 µM and a Duffy selectivity [3] of 0.18 ratio.

For SYRRITSSK [Peptide 2(1-9)[MCP-1]], the Kd [4] was roughly 50 µM.

B2: Pep2(1-14)[MIP1α] (peptide)
peptide: DYFETSSQCSKPGV
notes: Called peptide 2(1-15)[MIP1α]; also called Pep2[MIP1α]; peptide 2(1-15)[MIP1-α]
B2 gave a Duffy selectivity [3] greater than 100 ratio.

For ELRVIESGPHCANTEI (also called Pep2[IL8]) [Pep2(1-16)[IL8]], the Duffy selectivity [3] was less than 1 ratio.

B3: Leu4Ile11peptide 3(1-12)[MCP-1] (peptide)
peptide: EICLDPKQKWIQ
notes: also called Leu4Ile11pep3; Leu4Ile11peptide 3[MCP-1]
B3 showed a Duffy selectivity [5] of 37.8 ratio.

For Biotin-CLDPKQKWIQC (cysteine pairing not given here, also called biotinylated peptide) [N-terminal biotin conjugate of the sequence n'-CLDPKQKWIQC-c'], the Kd (CCR1) was greater than 10 µM, the Kd (CCR2) was greater than 10 µM and the Kd (CCR3) was greater than 10 µM. For the same binder, the Kd (CCR4) was greater than 10 µM, the Kd (CCR5) was greater than 10 µM and the Kd (CXCR4) was greater than 10 µM. It also gave a Kd (CXCR1) greater than 10 µM and a Kd (CXCR2) greater than 10 µM.

DYFETSSQC: no binding [6].

CSKPGV: no binding [6].
